Measured values reported in the supplement of paper PMC6755084.

B1: F1*; the commonest letter at each place (parent)
chain: GAGACCGCAACTGAAAAGTTGTTATCACTTGTCGTAAGACACTTTGGATGGGTTGAAGTTCTGCACGTAGAAGCAAAAGGC

Variants of: B1
Experiment: fraction ligated after 30 min (ligated reads / total reads); higher = more ligase activity
Conditions: with F1*sub RNA substrate (template-directed ligation), 42 °C
Procedure, shortened: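 Oligo-pool templates of ligase ribozyme variants were PCR-amplified, T7-transcribed and gel-purified. Ligated and unligated bands were gel-separated, reverse transcribed with barcoded primers, and MiSeq-sequenced; core bases were filtered at quality ≥20. Fraction ligated per variant was ligated reads over total reads.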

Going from T30G A37C to T30G A37G, the fraction ligated rises from 0.849 to 0.852.

Going from T30G A37T to T30G A39C, the fraction ligated falls from 0.86 to 0.786.

Going from T30G A39G to T30G A39T, the fraction ligated falls from 0.841 to 0.779.

Compared with T30G A41C, T30G A41G is higher in fraction ligated: 0.834 for the first, 0.84 for the second.

First: T30G A41T
Second: T30G A48C
The fraction ligated of the first is higher: 0.82 for the first, 0.761 for the second.

Going from T30G A48G to T30G A48T, the fraction ligated rises from 0.791 to 0.796.

Going from T30G A56C to T30G A56G, the fraction ligated falls from 0.786 to 0.757.

Compared with T30G A56T, T30G A57C is higher in fraction ligated: 0.797 for the first, 0.806 for the second.

Compared with T30G A57G, T30G A57T is higher in fraction ligated: 0.787 for the first, 0.828 for the second.

First: T30G C33A
Second: T30G C33G
The fraction ligated of the first is higher: 0.86 for the first, 0.854 for the second.

First: T30G C33T
Second: T30G C40A
The fraction ligated of the first is higher: 0.867 for the first, 0.854 for the second.

Compared with T30G C40G, T30G C40T is higher in fraction ligated: 0.81 for the first, 0.819 for the second.

Going from T30G C42A to T30G C42G, the fraction ligated rises from 0.831 to 0.834.

Compared with T30G C42T, T30G G31A is higher in fraction ligated: 0.817 for the first, 0.853 for the second.

Going from T30G G31C to T30G G31C T32C A39G C40G A41C, the fraction ligated rises from 0.845 to 0.846.

Compared with T30G G31C T32C C33G G38C A39G C40G A41C, T30G G31C T32G A39C C40G A41C is higher in fraction ligated: 0.797 for the first, 0.85 for the second.

First: T30G G31C T32G C33G G38C A39C C40G A41C
Second: T30G G31T
The fraction ligated of the first is lower: 0.828 for the first, 0.853 for the second.

Going from T30G G34A to T30G G34C, the fraction ligated falls from 0.825 to 0.795.

Compared with T30G G34T, T30G G38A is higher in fraction ligated: 0.796 for the first, 0.843 for the second.

Compared with T30G G38C, T30G G38T is higher in fraction ligated: 0.805 for the first, 0.816 for the second.

First: T30G G46A
Second: T30G G46C
The fraction ligated of the first is higher: 0.791 for the first, 0.776 for the second.

Going from T30G G46T to T30G G47A, the fraction ligated falls from 0.785 to 0.654.

Compared with T30G G47C, T30G G47T is higher in fraction ligated: 0.0588 for the first, 0.15 for the second.

First: T30G G50A
Second: T30G G50C
The fraction ligated of the first is higher: 0.513 for the first, 0.342 for the second.

First: T30G G50T
Second: T30G G55A
The fraction ligated of the first is lower: 0.712 for the first, 0.846 for the second.

Compared with T30G G55C, T30G G55T is higher in fraction ligated: 0.793 for the first, 0.819 for the second.

First: T30G T32A
Second: T30G T32C
The fraction ligated of the first is higher: 0.883 for the first, 0.784 for the second.

Compared with T30G T32C A39G A41C, T30G T32C C33G G38C A39G A41C is higher in fraction ligated: 0.803 for the first, 0.835 for the second.

First: T30G T32G
Second: T30G T32G A39C A41C
The fraction ligated of the first is higher: 0.865 for the first, 0.845 for the second.

First: T30G T32G C33G G38C A39C A41C
Second: T30G T35A
The fraction ligated of the first is higher: 0.862 for the first, 0.845 for the second.

First: T30G T35C
Second: T30G T35G
The fraction ligated of the first is lower: 0.813 for the first, 0.847 for the second.

Compared with T30G T43A, T30G T43C is lower in fraction ligated: 0.859 for the first, 0.794 for the second.

Compared with T30G T43G, T30G T44A is higher in fraction ligated: 0.795 for the first, 0.831 for the second.

Compared with T30G T44C, T30G T44G is lower in fraction ligated: 0.808 for the first, 0.798 for the second.

Compared with T30G T45A, T30G T45C is higher in fraction ligated: 0.76 for the first, 0.803 for the second.

First: T30G T45G
Second: T30G T49A
The fraction ligated of the first is lower: 0.46 for the first, 0.739 for the second.

First: T30G T49C
Second: T30G T49G
The fraction ligated of the first is lower: 0.526 for the first, 0.808 for the second.

Compared with G31A, G31A A36C is lower in fraction ligated: 0.812 for the first, 0.8 for the second.

First: G31A A36G
Second: G31A A36T
The fraction ligated of the first is lower: 0.595 for the first, 0.827 for the second.

First: G31A A37C
Second: G31A A37G
The fraction ligated of the first is lower: 0.813 for the first, 0.827 for the second.

Compared with G31A A37T, G31A A39C is lower in fraction ligated: 0.826 for the first, 0.78 for the second.

G31A A39G and G31A A39T are the same in fraction ligated: 0.795 for the first, 0.795 for the second.

First: G31A A41C
Second: G31A A41G
The fraction ligated of the first is lower: 0.74 for the first, 0.797 for the second.

Compared with G31A A41T, G31A A48C is lower in fraction ligated: 0.81 for the first, 0.322 for the second.

First: G31A A48G
Second: G31A A48T
The fraction ligated of the first is higher: 0.254 for the first, 0.01 for the second.

First: G31A A56C
Second: G31A A56G
The fraction ligated of the first is lower: 0.161 for the first, 0.687 for the second.

Going from G31A A56T to G31A A57C, the fraction ligated rises from 0.724 to 0.819.

First: G31A A57G
Second: G31A A57T
The fraction ligated of the first is higher: 0.851 for the first, 0.796 for the second.

First: G31A C33A
Second: G31A C33G
The fraction ligated of the first is higher: 0.833 for the first, 0.824 for the second.

Going from G31A C33T to G31A C40A, the fraction ligated rises from 0.829 to 0.839.

Going from G31A C40G to G31A C40T, the fraction ligated falls from 0.85 to 0.831.

Compared with G31A C42A, G31A C42G is lower in fraction ligated: 0.834 for the first, 0.818 for the second.

Compared with G31A C42T, G31A G34A is lower in fraction ligated: 0.839 for the first, 0.804 for the second.

First: G31A G34C
Second: G31A G34T
The fraction ligated of the first is lower: 0.769 for the first, 0.796 for the second.

Going from G31A G38A to G31A G38C, the fraction ligated rises from 0.796 to 0.798.

First: G31A G38T
Second: G31A G46A
The fraction ligated of the first is lower: 0.798 for the first, 0.845 for the second.

First: G31A G46C
Second: G31A G46T
The fraction ligated of the first is lower: 0.524 for the first, 0.777 for the second.

First: G31A G47A
Second: G31A G47C
The fraction ligated of the first is higher: 0.54 for the first, 0.0647 for the second.

First: G31A G47T
Second: G31A G50A
The fraction ligated of the first is higher: 0.0708 for the first, 0.025 for the second.

Compared with G31A G50C, G31A G50T is higher in fraction ligated: 0.0295 for the first, 0.195 for the second.

Going from G31A G55A to G31A G55C, the fraction ligated falls from 0.823 to 0.205.

First: G31A G55T
Second: G31A T32A
The fraction ligated of the first is lower: 0.767 for the first, 0.809 for the second.

Going from G31A T32C to G31A T32G, the fraction ligated rises from 0.811 to 0.837.

Going from G31A T35A to G31A T35C, the fraction ligated falls from 0.823 to 0.813.

Going from G31A T35G to G31A T43A, the fraction ligated rises from 0.763 to 0.815.

First: G31A T43C
Second: G31A T43G
The fraction ligated of the first is lower: 0.797 for the first, 0.807 for the second.

Compared with G31A T44A, G31A T44C is lower in fraction ligated: 0.818 for the first, 0.801 for the second.

Going from G31A T44G to G31A T45A, the fraction ligated falls from 0.819 to 0.395.

First: G31A T45C
Second: G31A T45G
The fraction ligated of the first is lower: 0.0954 for the first, 0.137 for the second.

First: G31A T49A
Second: G31A T49C
The fraction ligated of the first is higher: 0.214 for the first, 0.136 for the second.

First: G31A T49G
Second: G31C
The fraction ligated of the first is lower: 0.229 for the first, 0.79 for the second.

First: G31C A36C
Second: G31C A36G
The fraction ligated of the first is lower: 0.357 for the first, 0.682 for the second.

First: G31C A36T
Second: G31C A37C
The fraction ligated of the first is higher: 0.79 for the first, 0.769 for the second.

First: G31C A37G
Second: G31C A37T
The fraction ligated of the first is higher: 0.817 for the first, 0.79 for the second.

First: G31C A39C
Second: G31C A39G
The fraction ligated of the first is higher: 0.779 for the first, 0.777 for the second.

Going from G31C A39T to G31C A41C, the fraction ligated falls from 0.778 to 0.492.

Going from G31C A41G to G31C A41T, the fraction ligated falls from 0.779 to 0.732.

Compared with G31C A48C, G31C A48G is higher in fraction ligated: 0.242 for the first, 0.389 for the second.

Going from G31C A48T to G31C A56C, the fraction ligated rises from 0.0135 to 0.155.

Going from G31C A56G to G31C A56T, the fraction ligated rises from 0.607 to 0.694.

Compared with G31C A57C, G31C A57G is higher in fraction ligated: 0.788 for the first, 0.807 for the second.

Going from G31C A57T to G31C C33A, the fraction ligated rises from 0.793 to 0.798.

Compared with G31C C33G, G31C C33T is lower in fraction ligated: 0.794 for the first, 0.777 for the second.

Work on G31C C40A yielded a fraction ligated of 0.793.
